Assay results published in US20130059806A1 (REGENTS OF THE UNIVERSITY OF MICHIGAN, published 2013).

B1: TR2 (receptor, mouse, UniProt Q505F1 1-590, looked up)
chain: MATIEEIAHQIIDQQMGEIVTEQQTGQKIQIVTALDHSTQGKQFILANHEGSTPGKVFLTTPDAAGVNQLFFTSPDLSAPHLQLLTEKSPDQGPNKVFDLCVVCGDKASGRHYGAITCEGCKGFFKRSIRKNLVYSCRGSKDCVINKHHRNRCQYCRLQRCIAFGMKQDSVQCERKPIEVSREKSSNCAASTEKIYIRKDLRSPLAATPTFVTDSETARSAGLLDSGMFVNIHPSGIKTEPAMLMAPDKAESCQGDLSTLASVVTSLANLGKAKDLSHCGGDMPVVQSLRNGDTSFGAFHHDIQTNGDVSRAFDTLAKALTPGESSACQSPEEGMEGSPHLIAGEPSFVEKEGPLLSESHVAFRLTMPSPMPEYLNVHYIGESASRLLFLSMHWALSIPSFQALGQENSISLVKAYWNELFTLGLAQCWQVMNVATILATFVNCLHSSLQQDKMSPERRKSLMEHIFKLQEFCNSMVKLCIDGHEYAYLKAIVLFSPDHPGLENMELIERFQEKAYVEFQDYITRTYPDDTYRLSRLLLRLPALRLMNATITEELFFKGLIGNVRIDSVIPHILKMEPADYNSQIIGHSL
notes: Endogenous protein, immunoprecipitated or detected with a rabbit polyclonal antibody; also called NR2C1
B2: MTA1 (other, mouse, UniProt Q8K4B0 1-715, looked up)
chain: MAANMYRVGDYVYFENSSSNPYLIRRIEELNKTANGNVEAKVVCFYRRRDISSSLIALADKHATLSVCYRAGPGADTGEEGEVEEEVENPEMVDLPEKLKHQLRHRELFLSRQLESLPATHIRGKCSVTLLNETESLKSYLEREDFFFYSLVYDPQQKTLLADKGEIRVGNRYQADITDLLKEGEEDGRDQSKLETKVWEAHNPLVDKQIDQFLVVARSVGTFARALDCSSSVRQPSLHMSAAAASRDITLFHAMDTLHKNIYDISKAISALVPQGGPVLCRDEMEEWSASEANLFEEALEKYGKDFTDIQQDFLPWKSLTSIIEYYYMWKTTDRYVQQKRLKAAEAESKLKQVYIPNYNKPNPNQISASSVKATVVNGTGTPGQSPGAGRACESCYTTQSYQWYSWGPPNMQCRLCASCWTYWKKYGGLKMPTRLDGERPGPNRNNMSPHGIPARSSGSPKFAMKTRQAFYLHTTKLTRIARRLCREILRPWHAARHPYMPINSAAIKAECTARLPEASQSPLVLKQVVRKPLEAVLRYLETHPRPPKPDPVKSSSSVLSSLTPAKSAPVINNGSPTILGKRSYEQHNGVDGNMKKRLLMPSRGLANHGQTRHMGPSRNLLLNGKSYPTKVRLIRGGSLPPVKRRRMNWIDAPDDVFYMATEETRKIRKLLSSSETKRAARRPYKPIALRQSQALPLRPPPPAPVNDEPIVIED
notes: also called MTA1/2 (with MTA2)
B3: MTA2 (other, mouse, UniProt Q9R190 1-668, looked up)
chain: MAANMYRVGDYVYFENSSSNPYLVRRIEELNKTANGNVEAKVVCLFRRRDISSSLNSLADSNAREFEEESKQPGVSEQQRHQLKHRELFLSRQFESLPATHIRGKCSVTLLNETDILNQYLDKEDCFFYSLVFDPVQKTLLADQGEIRVGCKFQAEIPDRLAEGESDNRNQQKMEMKVWDPDNPLTDRQIDQFLVVARAVGTFARALDCSSSIRQPSLHMSAAAASRDITLFHAMDTLQRNGYDLAKAMSTLVPQGGPVLCRDEMEEWSASEAMLFEEALEKYGKDFNDIRQDFLPWKSLASIVQFYYMWKTTDRYIQQKRLKAAEADSKLKQVYIPTYTKPNPNQIISVGSKPGMNGAGFQKGLTCESCHTTQSAQWYAWGPPNMQCRLCASCWIYWKKYGGLKTPTQLEGAARGTTEPHSRGHLSRPEAQSLSPYTTSANRAKLLAKNRQTFLLQTTKLTRLARRMCRDLLQPRRAARRPYAPINANAIKAECSIRLPKAAKTPLKIHPLVRLPLATIVKDLVAQAPLKPKTPRGTKTPINRNQLTQNRGLGGIMVKRSYETMAGAGVPFSANGRPLASGIRSSSQPAAKRQKLNPADAPNPVVFVATKDTRALRKALTHLEMRRAARRPNLPLKVKPTLMTVRPPVPLPASSHPASTNEPIVLED
notes: also called MTA1/2 (with MTA1)
B4: HDAC3 (enzyme, mouse, UniProt O88895 1-428, looked up)
chain: MAKTVAYFYDPDVGNFHYGAGHPMKPHRLALTHSLVLHYGLYKKMIVFKPYQASQHDMCRFHSEDYIDFLQRVSPTNMQGFTKSLNAFNVGDDCPVFPGLFEFCSRYTGASLQGATQLNNKICDIAINWAGGLHHAKKFEASGFCYVNDIVIGILELLKYHPRVLYIDIDIHHGDGVQEAFYLTDRVMTVSFHKYGNYFFPGTGDMYEVGAESGRYYCLNVPLRDGIDDQSYKHLFQPVISQVVDFYQPTCIVLQCGADSLGCDRLGCFNLSIRGHGECVEYVKSFNIPLLVLGGGGYTVRNVARCWTYETSLLVEEAISEELPYSEYFEYFAPDFTLHPDVSTRIENQNSRQYLDQIRQTIFENLKMLNHAPSVQIHDVPADLLTYDRTDEADAEERGPEENYSRPEAPNEFYDGDHDNDKESDVEI
B5: transcriptional intermediary factor (TIF)-1beta (other, mouse, UniProt Q62318 2-834, looked up)
chain: AASAAATAAASAATAASAASGSPGSGEGSAGGEKRPAASSAAAASAAASSPAGGGGEAQELLEHCGVCRERLRPERDPRLLPCLHSACSACLGPATPAAANNSGDGGSAGDGAMVDCPVCKQQCYSKDIVENYFMRDSGSKASSDSQDANQCCTSCEDNAPATSYCVECSEPLCETCVEAHQRVKYTKDHTVRSTGPAKTRDGERTVYCNVHKHEPLVLFCESCDTLTCRDCQLNAHKDHQYQFLEDAVRNQRKLLASLVKRLGDKHATLQKNTKEVRSSIRQVSDVQKRVQVDVKMAILQIMKELNKRGRVLVNDAQKVTEGQQERLERQHWTMTKIQKHQEHILRFASWALESDNNTALLLSKKLIYFQLHRALKMIVDPVEPHGEMKFQWDLNAWTKSAEAFGKIVAERPGTNSTGPGPMAPPRAPGPLSKQGSGSSQPMEVQEGYGFGSDDPYSSAEPHVSGMKRSRSGEGEVSGLLRKVPRVSLERLDLDLTSDSQPPVFKVFPGSTTEDYNLIVIERGAAAAAAGQAGTVPPGAPGAPPLPGMAIVKEEETEAAIGAPPAAPEGPETKPVLMPLTEGPGAEGPRLASPSGSTSSGLEVVAPEVTSAPVSGPGILDDSATICRVCQKPGDLVMCNQCEFCFHLDCHLPALQDVPGEEWSCSLCHVLPDLKEEDGSLSLDGADSTGVVAKLSPANQRKCERVLLALFCHEPCRPLHQLATDSTFSMEQPGGTLDLTLIRARLQEKLSPPYSSPQEFAQDVGRMFKQFNKLTEDKADVQSIIGLQRFFETRMNDAFGDTKFSAVLVEPPPLNLPSAGLSSQELSGPGDGP
notes: also called TIF1β; TIF113

What was measured:
TR4 = target: T1, TR4 (mouse, UniProt P49117 1-596); assay: co-IP from untransfected MEL nuclear extract, immunoblot (summary)
T1 construct: Endogenous protein, immunoprecipitated or detected with a rabbit polyclonal antibody; also called NR2C2
T1 sequence (looked up): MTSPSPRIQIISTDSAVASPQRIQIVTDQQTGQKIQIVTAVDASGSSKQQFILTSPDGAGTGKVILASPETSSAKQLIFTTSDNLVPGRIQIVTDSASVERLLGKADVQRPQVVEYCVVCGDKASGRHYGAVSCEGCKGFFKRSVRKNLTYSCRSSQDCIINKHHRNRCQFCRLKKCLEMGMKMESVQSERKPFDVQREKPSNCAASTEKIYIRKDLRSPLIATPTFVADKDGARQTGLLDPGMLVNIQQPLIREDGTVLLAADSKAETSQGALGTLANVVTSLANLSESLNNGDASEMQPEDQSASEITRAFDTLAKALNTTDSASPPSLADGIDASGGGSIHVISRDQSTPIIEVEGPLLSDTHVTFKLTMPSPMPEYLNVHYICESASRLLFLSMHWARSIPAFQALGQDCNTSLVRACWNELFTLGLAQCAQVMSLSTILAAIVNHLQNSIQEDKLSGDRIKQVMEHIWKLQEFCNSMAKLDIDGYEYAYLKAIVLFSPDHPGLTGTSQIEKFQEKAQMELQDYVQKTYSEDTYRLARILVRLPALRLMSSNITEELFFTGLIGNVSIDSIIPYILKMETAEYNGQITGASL
Method: Nuclear extracts were prepared from untransfected, induced MEL cells and incubated with protein G beads coupled with antibodies against proteins shown at the top of the images, or with a control IgG; 150 μg of nuclear extract protein was used for each lane. Immunoprecipitates with the antibody-coupled beads, and 10% of the input (15 μg protein) were subjected to SDS-PAGE followed by immunoblotting with antibodies against proteins shown to the left of the images. For immunoprecipitation, antibodies against TR2, TR4, DNMT1, HDAC3, and TIF113 were used in the left panels.
Antibodies were coupled to Dynabeads protein G (Invitrogen) by incubating for 2 hr at 4° C. with rotation according to the manufacturer's instructions. The beads were then incubated with nuclear extracts (150 μg protein) prepared from untransfected MEL cells for 2 hr at 4° C. After washing the beads with ice-cold phosphate buffered saline (PBS) three times, immunoprecipitated proteins were eluted by boiling in 1× Laemmli sample buffer and then subjected to immunoblotting.

[1] = target: B5; assay: co-IP from untransfected MEL nuclear extract, immunoblot
MTA1 = target: B2; assay: as above
MTA2 = target: B3; assay: as above
Mi2β = target: T2, Mi2β (mouse, UniProt Q6PDQ2 1-1915); assay: as above
T2 construct: also called Mi2beta; Mi213

CoREST = CoREST (mouse, UniProt Q8CFE3 1-480); assay: as above
Chain of CoREST (Q8CFE3 whole entry): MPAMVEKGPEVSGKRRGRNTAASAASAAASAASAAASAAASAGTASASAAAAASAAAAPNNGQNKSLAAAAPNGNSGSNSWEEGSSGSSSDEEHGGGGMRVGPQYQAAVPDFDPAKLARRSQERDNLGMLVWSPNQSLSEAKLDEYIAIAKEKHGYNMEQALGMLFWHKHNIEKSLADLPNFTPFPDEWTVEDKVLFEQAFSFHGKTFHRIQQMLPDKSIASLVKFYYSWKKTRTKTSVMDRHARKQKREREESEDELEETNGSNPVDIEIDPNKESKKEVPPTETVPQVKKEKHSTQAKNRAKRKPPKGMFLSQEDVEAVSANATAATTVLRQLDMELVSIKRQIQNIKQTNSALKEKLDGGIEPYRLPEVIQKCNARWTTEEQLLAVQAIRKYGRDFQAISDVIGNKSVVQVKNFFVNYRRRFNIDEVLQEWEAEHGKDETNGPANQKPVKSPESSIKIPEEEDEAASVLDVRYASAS

T2 sequence (Q6PDQ2 whole entry): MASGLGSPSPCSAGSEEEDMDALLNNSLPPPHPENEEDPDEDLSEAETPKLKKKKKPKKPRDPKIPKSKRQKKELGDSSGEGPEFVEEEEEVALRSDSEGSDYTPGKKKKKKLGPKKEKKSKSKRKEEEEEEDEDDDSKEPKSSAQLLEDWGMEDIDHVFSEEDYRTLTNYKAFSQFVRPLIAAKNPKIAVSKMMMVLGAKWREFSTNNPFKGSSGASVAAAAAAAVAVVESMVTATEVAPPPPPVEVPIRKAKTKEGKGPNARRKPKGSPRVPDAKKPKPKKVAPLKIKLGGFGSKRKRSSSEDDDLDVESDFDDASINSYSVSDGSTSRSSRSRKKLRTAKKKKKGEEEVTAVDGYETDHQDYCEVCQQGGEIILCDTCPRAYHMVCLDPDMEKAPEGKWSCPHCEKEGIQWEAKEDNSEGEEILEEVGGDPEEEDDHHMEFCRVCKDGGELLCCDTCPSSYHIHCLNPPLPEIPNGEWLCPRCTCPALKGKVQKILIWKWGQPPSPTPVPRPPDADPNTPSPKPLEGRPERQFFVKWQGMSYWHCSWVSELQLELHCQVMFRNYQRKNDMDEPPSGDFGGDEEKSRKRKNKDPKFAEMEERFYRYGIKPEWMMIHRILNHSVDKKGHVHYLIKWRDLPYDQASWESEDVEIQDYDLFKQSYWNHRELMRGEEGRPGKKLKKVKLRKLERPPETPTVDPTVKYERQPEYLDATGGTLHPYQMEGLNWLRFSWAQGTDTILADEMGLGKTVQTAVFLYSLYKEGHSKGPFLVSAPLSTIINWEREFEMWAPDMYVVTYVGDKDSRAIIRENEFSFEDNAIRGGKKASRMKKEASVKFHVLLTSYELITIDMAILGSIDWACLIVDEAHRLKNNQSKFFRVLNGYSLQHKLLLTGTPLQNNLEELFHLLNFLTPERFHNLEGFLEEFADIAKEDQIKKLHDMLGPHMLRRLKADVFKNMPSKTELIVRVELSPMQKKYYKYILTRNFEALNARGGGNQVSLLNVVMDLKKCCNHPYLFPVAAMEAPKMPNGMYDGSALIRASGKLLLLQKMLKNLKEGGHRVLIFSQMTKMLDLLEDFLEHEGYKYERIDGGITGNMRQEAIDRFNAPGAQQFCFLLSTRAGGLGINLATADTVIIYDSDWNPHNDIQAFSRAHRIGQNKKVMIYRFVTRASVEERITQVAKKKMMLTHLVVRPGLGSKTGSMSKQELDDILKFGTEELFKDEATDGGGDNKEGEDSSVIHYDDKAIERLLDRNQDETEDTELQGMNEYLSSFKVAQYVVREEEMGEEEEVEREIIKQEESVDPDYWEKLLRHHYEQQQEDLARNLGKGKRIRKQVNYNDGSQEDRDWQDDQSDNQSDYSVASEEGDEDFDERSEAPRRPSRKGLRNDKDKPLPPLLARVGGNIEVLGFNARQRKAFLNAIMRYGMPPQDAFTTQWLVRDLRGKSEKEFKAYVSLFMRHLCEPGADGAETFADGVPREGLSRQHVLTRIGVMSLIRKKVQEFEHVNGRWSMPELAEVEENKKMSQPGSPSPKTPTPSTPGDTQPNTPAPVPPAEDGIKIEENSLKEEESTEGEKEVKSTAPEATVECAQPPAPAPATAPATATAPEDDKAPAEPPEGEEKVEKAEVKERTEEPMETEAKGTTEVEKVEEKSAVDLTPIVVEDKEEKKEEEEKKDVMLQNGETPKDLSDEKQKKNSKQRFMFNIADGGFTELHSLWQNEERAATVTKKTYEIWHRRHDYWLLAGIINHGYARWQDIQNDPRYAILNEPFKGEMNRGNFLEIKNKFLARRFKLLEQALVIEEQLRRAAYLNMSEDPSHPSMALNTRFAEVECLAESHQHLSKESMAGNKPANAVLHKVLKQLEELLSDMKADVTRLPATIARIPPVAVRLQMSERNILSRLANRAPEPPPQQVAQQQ

Binder | binding result [1] | binding result (Mi2β) | also measured
B1 |  |  | binding result (TR4): binds
B2 | no binding |  | 
B3 | no binding |  | 
B4 | no binding | no binding | binding result (MTA1): no binding; binding result (MTA2): no binding; binding result (CoREST): no binding
B5 |  | no binding | 
